Data reported in patent US20180155451A1 (published 2018).

T1: FcγRIIb (human, UniProt P31994 43-217)
T1 construct: extracellular domain; also called 2b
T1 sequence (looked up): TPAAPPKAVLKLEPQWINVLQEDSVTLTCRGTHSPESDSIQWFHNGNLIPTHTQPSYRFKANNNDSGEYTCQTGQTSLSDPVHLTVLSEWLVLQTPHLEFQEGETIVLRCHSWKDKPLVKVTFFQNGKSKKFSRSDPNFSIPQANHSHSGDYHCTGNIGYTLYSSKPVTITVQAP

T2: FcγRIIa H (human, UniProt P12318 34-217)
T2 construct: extracellular domain; also called FcγRIIa type H; 2aH
T2 sequence (looked up): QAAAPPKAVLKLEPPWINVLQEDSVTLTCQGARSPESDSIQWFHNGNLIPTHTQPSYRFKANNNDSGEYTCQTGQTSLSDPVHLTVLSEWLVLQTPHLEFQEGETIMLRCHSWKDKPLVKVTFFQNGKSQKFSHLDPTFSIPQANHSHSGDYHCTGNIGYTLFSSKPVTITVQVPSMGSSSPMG

T3: FcγRIIb extracellular domain with C-terminal His tag (human, UniProt P31994 43-217)
T3 construct: extracellular domain; Expressed in FreeStyle293 cells; used as analyte in Biacore; also called FcgRIIb; 2b; not shown: C-terminal His tag
T3 sequence (looked up): T1 sequence (looked up)

B1: GpH7-A5/GpH7-B3 variant P271_10E/GpL16-k0 (antibody, human IgG1, kappa)
heavy 1: not shown
heavy 2: not shown
light: DIVMTQSPLSLPVTPGEPASISCQASESLVHSNRNTYLHWYLQKPGQSPQLLIYKVSNRFSGVPDRFSGSGSGTDFTLKISRVEAEDVGVYYCSQNTHVPPTFGQGTKVEIERTVAAPSVFIFPPSDEQLKSGTASVVCLLNNFYPREAKVQWKVDNALQSGNSQESVTEQDSKDSTYSLSSTLTLSKADYEKHKVYACEVTHQGLSSPVTKSFNRGEC
notes: heterodimerized IgG1, mutation in one H chain only; also called He Ab
B2: GpH7-B3 variant L328_03V/GpL16-k0 (Ho Ab) (antibody, human IgG1, kappa)
heavy: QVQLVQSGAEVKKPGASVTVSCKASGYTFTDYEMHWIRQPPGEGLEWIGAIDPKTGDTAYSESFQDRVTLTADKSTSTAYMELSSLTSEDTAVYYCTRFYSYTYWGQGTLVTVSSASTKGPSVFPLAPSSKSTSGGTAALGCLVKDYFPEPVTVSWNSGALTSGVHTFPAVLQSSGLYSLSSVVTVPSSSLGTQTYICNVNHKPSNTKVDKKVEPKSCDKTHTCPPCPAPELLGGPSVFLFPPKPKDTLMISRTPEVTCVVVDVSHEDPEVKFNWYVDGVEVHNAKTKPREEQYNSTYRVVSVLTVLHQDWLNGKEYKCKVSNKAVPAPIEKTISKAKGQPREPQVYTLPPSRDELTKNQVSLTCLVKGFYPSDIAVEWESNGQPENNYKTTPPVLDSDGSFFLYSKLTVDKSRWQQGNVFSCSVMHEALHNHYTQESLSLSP
light: B1 light
notes: Substitution in both H chains; position in EU numbering; also called L328V homodimerized antibody
B3: GpH7-A5/GpH7-B3 variant S267_15Y/GpL16-k0 (antibody, human IgG1, kappa)
heavy 1: not shown
heavy 2: not shown
light: B1 light
notes: as for B1
B4: GpH7-A5/GpH7-B3 variant S298_08L/GpL16-k0 (antibody, human IgG1, kappa)
heavy 1: not shown
heavy 2: not shown
light: B1 light
notes: as for B1
B5: GpH7-B3 variant L328_07I/GpL16-k0 (Ho Ab) (antibody, human IgG1, kappa)
heavy: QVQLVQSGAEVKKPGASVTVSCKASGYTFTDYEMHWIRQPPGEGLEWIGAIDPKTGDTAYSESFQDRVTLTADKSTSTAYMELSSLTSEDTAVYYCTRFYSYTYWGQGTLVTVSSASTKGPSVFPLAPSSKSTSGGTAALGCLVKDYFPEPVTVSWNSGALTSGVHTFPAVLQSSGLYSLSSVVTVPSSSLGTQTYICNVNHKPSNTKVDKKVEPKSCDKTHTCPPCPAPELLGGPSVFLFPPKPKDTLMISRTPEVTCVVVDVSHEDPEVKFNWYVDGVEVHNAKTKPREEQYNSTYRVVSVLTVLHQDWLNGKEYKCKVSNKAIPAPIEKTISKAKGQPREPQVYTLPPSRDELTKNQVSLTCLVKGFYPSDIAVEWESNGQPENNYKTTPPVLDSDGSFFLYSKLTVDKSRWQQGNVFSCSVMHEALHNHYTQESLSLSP
light: B1 light
notes: Substitution in both H chains; position in EU numbering; also called L328I homodimerized antibody
B6: GpH7-B3 variant P331_04F/GpL16-k0 (Ho Ab) (antibody, human IgG1, kappa)
heavy: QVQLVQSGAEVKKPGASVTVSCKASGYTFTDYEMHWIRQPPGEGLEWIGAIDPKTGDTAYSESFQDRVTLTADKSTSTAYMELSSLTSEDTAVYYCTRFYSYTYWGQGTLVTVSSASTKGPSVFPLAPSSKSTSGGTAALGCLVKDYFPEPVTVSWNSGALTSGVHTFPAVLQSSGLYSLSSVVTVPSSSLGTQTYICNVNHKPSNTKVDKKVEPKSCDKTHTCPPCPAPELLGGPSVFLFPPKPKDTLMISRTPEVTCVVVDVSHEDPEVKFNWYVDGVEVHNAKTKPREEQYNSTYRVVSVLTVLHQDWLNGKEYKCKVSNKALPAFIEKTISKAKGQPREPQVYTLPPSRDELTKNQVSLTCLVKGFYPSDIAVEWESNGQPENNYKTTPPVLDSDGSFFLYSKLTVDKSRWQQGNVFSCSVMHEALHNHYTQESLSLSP
light: B1 light
notes: Substitution in both H chains; position in EU numbering; also called P331F homodimerized antibody
B7: GpH7-B3 variant L328_04F/GpL16-k0 (Ho Ab) (antibody, human IgG1, kappa)
heavy: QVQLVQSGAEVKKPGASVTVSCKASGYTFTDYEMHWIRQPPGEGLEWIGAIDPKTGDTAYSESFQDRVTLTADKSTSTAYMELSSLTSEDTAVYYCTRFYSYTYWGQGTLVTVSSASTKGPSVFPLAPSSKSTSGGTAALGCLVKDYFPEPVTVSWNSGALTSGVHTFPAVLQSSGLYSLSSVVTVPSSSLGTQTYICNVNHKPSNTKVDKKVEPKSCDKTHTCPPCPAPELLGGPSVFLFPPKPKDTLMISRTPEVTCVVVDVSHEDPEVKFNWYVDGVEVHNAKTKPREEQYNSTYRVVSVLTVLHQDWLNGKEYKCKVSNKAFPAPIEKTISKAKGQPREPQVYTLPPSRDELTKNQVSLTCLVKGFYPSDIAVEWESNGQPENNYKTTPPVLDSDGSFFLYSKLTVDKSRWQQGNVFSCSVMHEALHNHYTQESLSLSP
light: B1 light
notes: Substitution in both H chains; position in EU numbering; also called L328F homodimerized antibody
B8: GpH7-B3 variant K334_16H/GpL16-k0 (Ho Ab) (antibody, human IgG1, kappa)
heavy: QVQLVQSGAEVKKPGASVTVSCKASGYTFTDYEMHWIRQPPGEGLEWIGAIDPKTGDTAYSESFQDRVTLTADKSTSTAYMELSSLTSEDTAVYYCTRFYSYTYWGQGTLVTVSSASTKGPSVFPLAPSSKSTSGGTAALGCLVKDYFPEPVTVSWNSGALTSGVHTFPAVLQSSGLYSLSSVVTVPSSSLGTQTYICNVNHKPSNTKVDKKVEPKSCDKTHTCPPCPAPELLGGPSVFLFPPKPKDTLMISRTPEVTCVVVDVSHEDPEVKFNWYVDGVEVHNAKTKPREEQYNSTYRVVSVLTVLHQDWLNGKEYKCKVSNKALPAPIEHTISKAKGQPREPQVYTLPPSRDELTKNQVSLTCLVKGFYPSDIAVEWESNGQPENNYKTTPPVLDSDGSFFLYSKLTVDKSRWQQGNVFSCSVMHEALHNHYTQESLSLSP
light: B1 light
notes: Substitution in both H chains; position in EU numbering; also called K334H homodimerized antibody
B9: GpH7-B3 variant K334_18N/GpL16-k0 (Ho Ab) (antibody, human IgG1, kappa)
heavy: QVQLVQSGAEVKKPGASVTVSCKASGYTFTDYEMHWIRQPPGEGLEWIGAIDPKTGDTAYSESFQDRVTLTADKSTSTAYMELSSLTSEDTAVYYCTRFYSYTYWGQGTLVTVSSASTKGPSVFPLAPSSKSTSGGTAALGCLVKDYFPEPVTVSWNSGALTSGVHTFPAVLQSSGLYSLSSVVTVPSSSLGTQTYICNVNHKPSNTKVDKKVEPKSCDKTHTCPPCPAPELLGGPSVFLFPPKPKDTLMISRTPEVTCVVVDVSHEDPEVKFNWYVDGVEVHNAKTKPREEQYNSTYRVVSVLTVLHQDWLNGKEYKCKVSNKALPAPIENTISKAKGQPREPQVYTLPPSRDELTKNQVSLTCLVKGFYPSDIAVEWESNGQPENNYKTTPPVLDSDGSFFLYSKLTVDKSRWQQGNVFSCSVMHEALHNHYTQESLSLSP
light: B1 light
notes: Substitution in both H chains; position in EU numbering; also called K334N homodimerized antibody
B10: GpH7-A5/GpH7-B3 variant V266_20W/GpL16-k0 (antibody, human IgG1, kappa)
heavy 1: not shown
heavy 2: not shown
light: B1 light
notes: as for B1
B11: GpH7-A5/GpH7-B3 variant S267_09D/GpL16-k0 (antibody, human IgG1, kappa)
heavy 1: not shown
heavy 2: not shown
light: B1 light
notes: as for B1
B12: GpH7-A5/GpH7-B3 variant Y300_10E/GpL16-k0 (antibody, human IgG1, kappa)
heavy 1: not shown
heavy 2: not shown
light: B1 light
notes: as for B1
B13: GpH7-B3 variant S239_01G/GpL16-k0 (Ho Ab) (antibody, human IgG1, kappa)
heavy: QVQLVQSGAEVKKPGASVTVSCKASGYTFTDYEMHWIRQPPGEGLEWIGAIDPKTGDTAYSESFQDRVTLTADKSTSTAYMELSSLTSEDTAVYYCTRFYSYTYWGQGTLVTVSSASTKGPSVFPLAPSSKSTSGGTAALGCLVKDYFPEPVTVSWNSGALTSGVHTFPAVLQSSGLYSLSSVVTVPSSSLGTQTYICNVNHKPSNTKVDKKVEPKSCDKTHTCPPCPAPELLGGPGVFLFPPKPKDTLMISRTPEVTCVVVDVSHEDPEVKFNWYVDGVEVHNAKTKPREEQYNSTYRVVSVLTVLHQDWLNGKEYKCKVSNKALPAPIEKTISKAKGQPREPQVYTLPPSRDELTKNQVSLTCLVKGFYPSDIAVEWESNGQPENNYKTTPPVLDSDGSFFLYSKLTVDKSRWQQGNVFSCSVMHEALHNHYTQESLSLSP
light: B1 light
notes: Substitution in both H chains; position in EU numbering; also called S239G homodimerized antibody
B14: GpH7-B3 variant S239_07I/GpL16-k0 (Ho Ab) (antibody, human IgG1, kappa)
heavy: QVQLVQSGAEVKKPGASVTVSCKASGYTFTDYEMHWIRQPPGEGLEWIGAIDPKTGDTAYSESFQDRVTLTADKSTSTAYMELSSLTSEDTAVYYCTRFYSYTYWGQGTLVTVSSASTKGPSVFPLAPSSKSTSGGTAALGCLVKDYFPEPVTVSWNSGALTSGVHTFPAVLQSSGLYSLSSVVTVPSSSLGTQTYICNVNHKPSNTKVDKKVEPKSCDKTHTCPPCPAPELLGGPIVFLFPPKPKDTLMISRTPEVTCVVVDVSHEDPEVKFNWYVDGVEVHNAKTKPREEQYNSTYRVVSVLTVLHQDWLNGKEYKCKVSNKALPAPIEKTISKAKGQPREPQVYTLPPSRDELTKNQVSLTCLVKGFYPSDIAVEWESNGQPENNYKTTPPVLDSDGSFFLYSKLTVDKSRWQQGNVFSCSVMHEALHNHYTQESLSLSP
light: B1 light
notes: Substitution in both H chains; position in EU numbering; also called S239I homodimerized antibody
B15: GpH7-A5/GpH7-B3 variant S267_20W/GpL16-k0 (antibody, human IgG1, kappa)
heavy 1: not shown
heavy 2: not shown
light: B1 light
notes: as for B1
B16: GpH7-A5/GpH7-B3 variant S267_02A/GpL16-k0 (antibody, human IgG1, kappa)
heavy 1: not shown
heavy 2: not shown
light: B1 light
notes: as for B1
B17: GpH7-B3 variant P271_08L/GpL16-k0 (Ho Ab) (antibody, human IgG1, kappa)
heavy: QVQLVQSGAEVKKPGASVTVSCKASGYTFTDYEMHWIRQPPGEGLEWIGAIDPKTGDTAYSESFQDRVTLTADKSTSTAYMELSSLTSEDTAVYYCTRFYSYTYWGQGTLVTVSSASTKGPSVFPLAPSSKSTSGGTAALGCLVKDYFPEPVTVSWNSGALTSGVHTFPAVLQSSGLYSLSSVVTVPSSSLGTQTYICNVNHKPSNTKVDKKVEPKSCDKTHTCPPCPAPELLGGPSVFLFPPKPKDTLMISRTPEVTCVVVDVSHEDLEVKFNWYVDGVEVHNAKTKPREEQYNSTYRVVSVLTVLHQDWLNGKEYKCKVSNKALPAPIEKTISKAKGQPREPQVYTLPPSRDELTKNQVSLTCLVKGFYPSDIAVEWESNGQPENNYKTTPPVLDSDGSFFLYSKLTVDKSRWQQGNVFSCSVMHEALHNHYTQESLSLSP
light: B1 light
notes: Substitution in both H chains; position in EU numbering; also called P271L homodimerized antibody
B18: GpH7-A5/GpH7-B3 variant S267_14T/GpL16-k0 (antibody, human IgG1, kappa)
heavy 1: not shown
heavy 2: not shown
light: B1 light
notes: as for B1
B19: GpH7-A5/GpH7-B3 variant S267_10E/GpL16-k0 (antibody, human IgG1, kappa)
heavy 1: not shown
heavy 2: not shown
light: B1 light
notes: as for B1
B20: GpH7-A5/GpH7-B3 variant P271_14T/GpL16-k0 (antibody, human IgG1, kappa)
heavy 1: not shown
heavy 2: not shown
light: B1 light
notes: as for B1

Assays:
FcγRIIb = target: T1, FcγRIIb; test: SPR (Biacore), relative binding vs GpH7-A5/GpH7-B3/GpL16-k0
FcγRIIa H [1] = target: T2, FcγRIIa H; test: as above
FcγRIIa H [2] = target: T2, FcγRIIa H; test: SPR; He/Con_2aH divided by He/Con_2b (FcγRIIb)
Protocol: The heterodimerized antibodies He Abs in which one of the H chains was introduced with an alteration were assayed for their binding activities to each activating FcγR and inhibitory FcγR according to the method described in Example 4. […] The activating FcγRs in FIGS. 26, 27, 28, and 29 are FcγRIa, FcγRIIa (R), FcγRIIa (H), and FcγRIIIa, respectively.
Analysis of interaction between objective antibody and the FcγR was carried out using Biacore T100 (GE Healthcare). HBS-EP+ (GE Healthcare) was used as the running buffer, and the measurement temperature was set to 25° C. Chips produced by immobilizing the antigen peptide by the amine coupling method to a Series S Sencor Chip CM5 (GE Healthcare), or alternatively, chips produced by allowing preliminarily biotinylated antigen peptides to interact with and immobilize onto a Series S Sensor Chip SA (certified) (GE Healthcare) were used. Antibodies of interest were captured onto an antigen peptide-immobilized chip, and allowed to interact to each FcγR diluted with running buffer. To regenerate and repeatedly use the chip, the antibodies captured on the chip were washed off by reacting 10 mM glycine-HCl, pH 1.5.

[3] = target: T3, FcγRIIb extracellular domain with …; test: SPR (Biacore), antibody captured on antigen-peptide chip, FcgRIIb as analyte; binding relative to GpH7-B3/GpL16-k0 (HoCon Ab) = 100

Row | Binder | He/Con_2b (FcγRIIb) | He/Con_2aH (FcγRIIa H [1]) | He_2aH/2b (IIaH/IIb) (FcγRIIa H [2]) | Ho/Con_2b [3]
1 | B1 | 109 % of control He Ab (=100) | 63.1 % of control He Ab (=100) | 0.58 ratio | 
2 | B2 |  |  |  | 135 % of control
3 | B3 | 37.9 % of control He Ab (=100) | 19.6 % of control He Ab (=100) | 0.52 ratio | 
4 | B4 | 108 % of control He Ab (=100) | 85 % of control He Ab (=100) | 0.78 ratio | 
5 | B5 |  |  |  | 188 % of control
6 | B6 |  |  |  | 113 % of control
7 | B7 |  |  |  | 241 % of control
8 | B8 |  |  |  | 124 % of control
9 | B9 |  |  |  | 128 % of control
10 | B10 | 71.9 % of control He Ab (=100) | 12 % of control He Ab (=100) | 0.17 ratio | 
11 | B11 | 310 % of control He Ab (=100) | 105 % of control He Ab (=100) | 0.34 ratio | 
12 | B12 | 134 % of control He Ab (=100) | 97.2 % of control He Ab (=100) | 0.73 ratio | 
13 | B13 |  |  |  | 174 % of control
14 | B14 |  |  |  | 108 % of control
15 | B15 | 57.2 % of control He Ab (=100) | 37.9 % of control He Ab (=100) | 0.66 ratio | 
16 | B16 | 243 % of control He Ab (=100) | 120 % of control He Ab (=100) | 0.49 ratio | 
17 | B17 |  |  |  | 113 % of control
18 | B18 | 104 % of control He Ab (=100) | 63.3 % of control He Ab (=100) | 0.61 ratio | 
19 | B19 | 379 % of control He Ab (=100) | 102 % of control He Ab (=100) | 0.27 ratio | 
20 | B20 | 95.4 % of control He Ab (=100) | 60.9 % of control He Ab (=100) | 0.64 ratio | 
